# Results published in paper PMC2148182 (The Journal of Cell Biology, 1998).
# Like-named read-outs stand apart in the source and are kept apart here.
# B1: full-length twinfilin (yeast, recombinant) (natural protein)
# chain: MATQSGIVAEQALLHSLNENLSADGIVIIIAKISPDSTSVHQTQVARSFEELVQLASQEREPLYIFYKPEGLDKYFFVSFIPDGSPVRSRMLYASTKNTLARQVGSNSLSTEQPLITDAQDLVDLKNFDSARPAGQNKPLTHDEEMQIEINKQQALLRKNTSVKLVSQDSASPLSLTFRVNSEKPINEILDSEGKNLIIFQIDPSNETIQIVQSDTCPSVDELYIDLPGPSYTIFRQGDSSFFIYSCPSGSKVKDRMIYASNKNGFINYLKNDQKIAFSKVVEIGDFVELDKSLLMATNKEDSLDHGSNPDLPNKSNLKFNKPKGPLRKRRT
# Legend:
# [1] = molecular target: T1, yeast actin monomers (yeast (S. cerevisiae), UniProt P60010 1-375); assay: co-sedimentation
# [2] = molecular target: T1, yeast actin monomers; assay: co-sedimentation; remark: listed apart in the source
binder,measurement,setting,value
B1,stoichiometry N,[1],~1 twinfilin:actin
same,stoichiometry N,[2],1 twinfilin:actin
